The target in assay [1] is T1, Recombinant Human DLL4 (delta-like protein 4) (human, UniProt Q9NR61 27-524).
T1 construct: also called rHuman DLL4
The experiment in a line: ELISA, plate-coated DLL4, Fab 25 nM. (ELISA stands for enzyme-linked immunosorbent assay.)

The target in assay [2] is T1, Recombinant Human DLL4 (delta-like …). The experiment in a line: ELISA, plate-coated DLL4, Fab 50 nM.
For assay [3] the target is unchanged. Description: ELISA, plate-coated DLL4, Fab 100 nM.
For assay [4] the target is unchanged. The experiment in a line: ELISA, plate-coated DLL4, Fab 12.5 nM.
The target is the same in assay [5]. Description: ELISA, plate-coated DLL4, Fab 6.25 nM.
Assay [6] shares this target. Description: ELISA, plate-coated DLL4, Fab 3.125 nM.
The target in assay [7] is T2, Recombinant Human DLL4 (delta-like protein 4) (human, UniProt Q9NR61 27-524).
T2 construct: Bought recombinant human DLL4 (R&D Systems Cat#1506-D4/CF); also called rHuman DLL4; Delta-like ligand 4
The experiment in a line: ECL binding assay on immobilized DLL4, Fab at 0.04 µM.

Assay [8] concerns the target T3, Recombinant Human DLL4 (R&D Systems Cat#1506-D4/CF) (human, UniProt Q9NR61 27-529).
T3 construct: Bought recombinant protein, coated on the plate; also called delta-like protein 4; rHuman DLL4
The experiment in a line: ECL 96-well plate assay (MSD), 0.1 µM Fab, plate coated with 30 µg/mL DLL4.

Assay [9] concerns the target T3, Recombinant Human DLL4 (R&D Systems …). Description: ECL 96-well plate assay (MSD), 0.02 µM Fab, plate coated with 15 µg/mL DLL4.
Assay [10] has as its target T4, Recombinant Human DLL4 (R&D Systems Cat#1506-D4/CF) (human, UniProt Q9NR61 27-524).
T4 construct: also called delta-like protein 4; rHuman DLL4
Description: ELISA, DLL4 coated on plate, Fab at 100 nM, absorbance at 450 nm.

For assay [11], the target named is T5, rHuman EGF R/Fc Chimera, CF (R&D Systems Cat#344-ER) (human, UniProt P00533 25-645).
T5 construct: Bought recombinant protein; also called epidermal growth factor receptor; Fc part of the bought chimera not given
The experiment in a line: ECL multispot (MSD) binding assay, antigen spotted on plate, Fab 0.04 uM.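 Further: purified Fab incubated 1 h at 20 °C on antigen spots, detected via TAG-labelled antibody, ECL read against each well's blank, with signal-to-blank of at least 4 scored as binder.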

In assay [12] the target is T6, rHuman P-Cadherin/Fc Chimera, CF (R&D Systems Cat#861-PC) (human, UniProt P22223 108-654).
T6 construct: Bought recombinant protein; Fc part of the bought chimera not given
The assay is described as above.

Assay [13] addresses T7, rHuman Erythropoietin R/Fc Chimera, CF (R&D Systems Cat#963-ER) (human, UniProt P19235 25-250).
T7 construct: Bought recombinant protein; also called EPO R; EPO R/Fc; Fc part of the bought chimera not given
T7 sequence (looked up): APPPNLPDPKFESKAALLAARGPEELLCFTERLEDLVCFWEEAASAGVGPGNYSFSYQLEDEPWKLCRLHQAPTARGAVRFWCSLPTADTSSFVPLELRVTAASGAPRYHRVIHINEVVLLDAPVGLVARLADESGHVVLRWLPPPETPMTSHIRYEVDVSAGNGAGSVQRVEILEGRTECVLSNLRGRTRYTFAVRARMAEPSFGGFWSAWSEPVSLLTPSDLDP
The assay is described as above.

Assay [14] addresses T8, Recombinant Human DLL4 (R&D Systems Cat#1506-D4/CF) (human, UniProt Q9NR61 27-524).
T8 construct: Bought recombinant protein; also called delta-like protein 4; rHuman DLL4
The assay is described as above.

Assay [15] concerns the target T9, rHuman CD44/Fc Chimera, CF (R&D Systems Cat#3660-CD) (human, UniProt P16070 21-220).
T9 construct: Bought recombinant protein; Fc part of the bought chimera not given
Described as above.

Substitutions are numbered along the chain they refer to. Numbers in names are those of the source.

B1: Fab VH1-46_IGHD6-6*01_IGHJ1*01 S102A/S103P/S104F/H111F (APFF) & L6_IGKJ1*01 S28N/S30D/S31H S52T (Fab, V domains shown)
VH: QVQLVQSGAEVKKPGASVKVSCKASGYTFTSYYMHWVRQAPGQGLEWMGIINPSGGSTSYAQKFQGRVTMTRDTSTSTVYMELSSLRSEDTAVYYCAREEYAPFSAEYFQFWGQGTLVTVSS
VL: EIVLTQSPATLSLSPGERATLSCRASQNVDHYLAWYQQKPGQAPRLLIYDATNRATGIPARFSGSGSGTDFTLTISSLEPEDFAVYYCQQRSNWPPWTFGQGTKVEIKR
notes: Fab made in E. coli: VH in plasmid A (CH1, His6 and Flag tags), VL in plasmid C (kappa CL); also called H:APFF & L:NDH S52T; APFF / NDH/S52T
Take B1: the “ELISA signal at 25 nM Fab” value in assay [1] came out at 0.323. The “ELISA signal at 50 nM Fab” value in assay [2] is 0.49. Besides, the “ELISA signal at 100 nM Fab” value in assay [3] was determined as 0.653. For the same molecule, the “ELISA signal at 12.5 nM Fab” value in assay [4] was found to be 0.215. Besides, the “ELISA signal at 6.25 nM Fab” value in assay [5] was 0.13. In addition, the “ELISA signal at 3.125 nM Fab” value in assay [6] was 0.099.

B2: Fab VH5-51_IGHD5-18*01>3_IGHJ4*01 & V3-4_IGLJ1*01 (Fab, V domains shown)
VH: EVQLVQSGAEVKKPGESLKISCKGSGYSFTSYWIGWVRQMPGKGLEWMGIIYPGDSDTRYSPSFQGQVTISADKSISTAYLQWSSLKASDTAMYYCARRGYSYGYDYFDYWGQGTLVTVSS
VL: QTVVTQEPSFSVSPGGTVTLTCGLSSGSVSTSYYPSWYQQTPGQAPRTLIYSTNTRSSGVPDRFSGSILGNKAALTITGAQADDESDYYCVLYMGSGISYVFGTGTKVTVL
notes: Fab expressed in E. coli; VH was cloned into Plasmid A (CH1, His6 and Flag tags) and VL into Plasmid E (lambda CL); also called wildtype; parent Hit Fab VH5-51_IGHD5-18*01>3_IGHJ4*01 & V3-4_IGLJ1*01
Turning to B2, the “Signal/Noise (0.04 µM)” value in [7] amounted to 14.7.

B3: Fab VH5-51_IGHD5-18*01>3_IGHJ4*01 & V3-4_IGLJ1*01 (Fab, V domains shown)
VH: B2 VH
VL: B2 VL
notes: Tested as Fab from E. coli; VH was cloned into Plasmid A, which supplies CH1 and His6 and Flag tags; The lambda VL was cloned into Plasmid E, which supplies lambda CL; also called wildtype; parent Hit Fab VH5-51_IGHD5-18*01_IGHJ4*01 & V3-4_IGLJ1*01
B3: the Signal/Noise in [8] came to 24; in [9], 15.2.

B4: Fab VH5-51_IGHD5-18*01>3_IGHJ4*01 Y103A & V3-4_IGLJ1*01 (Fab, V domains shown)
VH: B2 VH with Y103A
VL: B2 VL
notes: Fab with CH1 (Plasmid A, His6 and Flag tags) and lambda CL (Plasmid E)
Regarding B4, the “Signal/Noise (0.04 µM)” value in assay [7] amounted to 1.2.

B5: Fab VH5-51_IGHD5-18*01>3_IGHJ4*01 G104A & V3-4_IGLJ1*01 (Fab, V domains shown)
VH: B2 VH with G104A
VL: B2 VL
notes: as for B4
Consider B5, for which, in [7], the “Signal/Noise (0.04 µM)” value came out at 15.5.

B6: Fab VH5-51_IGHD5-18*01>3_IGHJ4*01 S102A & V3-4_IGLJ1*01 (Fab, V domains shown)
VH: B2 VH with S102A
VL: B2 VL
notes: Heavy chain CDR3 alanine mutant of the parent Fab; Fab format as for the parent
On to B6, for which the Signal/Noise in [8] came out at 4.7; in assay [9] it was 1.8.

B7: Fab VH5-51_IGHD5-18*01>3_IGHJ4*01 Y105A & V3-4_IGLJ1*01 (Fab, V domains shown)
VH: B2 VH with Y105A
VL: B2 VL
notes: as for B4
Turning to B7, the “Signal/Noise (0.04 µM)” value in assay [7] is 9.6.

B8: Fab VH5-51_IGHD5-18*01>3_IGHJ4*01 G100A & V3-4_IGLJ1*01 (Fab, V domains shown)
VH: B2 VH with G100A
VL: B2 VL
notes: as for B4
Consider B8, for which the “Signal/Noise (0.04 µM)” value in assay [7] is 30.4.

B9: Fab VH5-51_IGHD5-18*01>3_IGHJ4*01 S102A & V3-4_IGLJ1*01 (Fab, V domains shown)
VH: B2 VH with S102A
VL: B2 VL
notes: as for B4
Take B9: the “Signal/Noise (0.04 µM)” value in assay [7] was 2.

B10: Fab VH5-51_IGHD5-18*01>3_IGHJ4*01 G100K/G104T G24T/S28R/G35V (H:KT TRV) & V3-4_IGLJ1*01 S96P (Fab, V domains shown)
VH: B2 VH with G24T, S28R, G35V, G100K, G104T
VL: B2 VL with S96P
notes: Tested as Fab expressed in E. coli
Consider B10, for which, in assay [10], the “ELISA Signal-blank (100 nM Fab)” value was 0.813.

B11: Fab VH5-51_IGHD5-18*01>3_IGHJ4*01 G100K/G104T G24T/S28R/G35V (H:KT TRV) & V3-4_IGLJ1*01 S96V (Fab, V domains shown)
VH: B2 VH with G24T, S28R, G35V, G100K, G104T
VL: B2 VL with S96V
notes: as for B10
With B11, in [10], the “ELISA Signal-blank (100 nM Fab)” value amounted to 0.452.

B12: Fab VH5-51_IGHD5-18*01>3_IGHJ4*01 Y105A & V3-4_IGLJ1*01 (Fab, V domains shown)
VH: B2 VH with Y105A
VL: B2 VL
notes: as for B6
For the molecule B12, the Signal/Noise in assay [8] and in assay [9] was 1 in each case.

B13: Fab VH5-51_IGHD5-18*01>3_IGHJ4*01 G100K/G104T G24T/S28R/G35V (H:KT TRV) & V3-4_IGLJ1*01 S96E (Fab, V domains shown)
VH: B2 VH with G24T, S28R, G35V, G100K, G104T
VL: B2 VL with S96E
notes: as for B10
B13: the “ELISA Signal-blank (100 nM Fab)” value in assay [10] was determined as 0.439.

B14: Fab VH5-51_IGHD5-18*01>3_IGHJ4*01 G100K/G104T (H:KT) & V3-4_IGLJ1*01 L92A (Fab, V domains shown)
VH: B2 VH with G100K, G104T
VL: B2 VL with L92A
notes: Fab; Expressed from Plasmid A (CH1, His6 and Flag tags) and Plasmid E (lambda CL); also called KT & L92A
In the case of B14, the ECL signal in [11] was 1010; in assay [12] it was 326; in [13] it was 582; in [14], 11700.

B15: Fab VH5-51_IGHD5-18*01>3_IGHJ4*01 G100K/G104T G24T/S28R/G35V (H:KT TRV) & V3-4_IGLJ1*01 S96M (Fab, V domains shown)
VH: B2 VH with G24T, S28R, G35V, G100K, G104T
VL: B2 VL with S96M
notes: as for B10
As to B15, in [10], the “ELISA Signal-blank (100 nM Fab)” value was found to be 0.358.

B16: Fab VH5-51_IGHD5-18*01>3_IGHJ4*01 Y103A & V3-4_IGLJ1*01 (Fab, V domains shown)
VH: B2 VH with Y103A
VL: B2 VL
notes: as for B6
With B16, the Signal/Noise amounted to 4 in [8] and 1.5 in assay [9].

B17: Fab VH5-51_IGHD5-18*01>3_IGHJ4*01 G100K/G104T (H:KT) & V3-4_IGLJ1*01 G95A (Fab, V domains shown)
VH: B2 VH with G100K, G104T
VL: B2 VL with G95A
notes: Fab; Expressed from Plasmid A (CH1, His6 and Flag tags) and Plasmid E (lambda CL); also called KT & G95A
For B17, the ECL signal in assay [15] stood at 657; in [12], 345; in assay [13] it was 637; in [14], 10400.

B18: Fab VH5-51_IGHD5-18*01>3_IGHJ4*01 G100K/G104T G24T/S28R/G35V (H:KT TRV) & V3-4_IGLJ1*01 S96L (Fab, V domains shown)
VH: B2 VH with G24T, S28R, G35V, G100K, G104T
VL: B2 VL with S96L
notes: as for B10
Consider B18, for which the “ELISA Signal-blank (100 nM Fab)” value in [10] was 0.355.

B19: Fab VH5-51_IGHD5-18*01>3_IGHJ4*01 G100A & V3-4_IGLJ1*01 (Fab, V domains shown)
VH: B2 VH with G100A
VL: B2 VL
notes: as for B6
With B19, the Signal/Noise in [8] was found to be 53.3; in assay [9], 24.2.

B20: Fab VH5-51_IGHD5-18*01>3_IGHJ4*01 G104A & V3-4_IGLJ1*01 (Fab, V domains shown)
VH: B2 VH with G104A
VL: B2 VL
notes: as for B6
Take B20: the Signal/Noise in assay [8] was found to be 41.5; in assay [9] it was 12.5.

B21: Fab VH5-51_IGHD5-18*01>3_IGHJ4*01 G100K/G104T G24T/S28R/G35V (H:KT TRV) & V3-4_IGLJ1*01 S96R (Fab, V domains shown)
VH: B2 VH with G24T, S28R, G35V, G100K, G104T
VL: B2 VL with S96R
notes: as for B10
Consider B21, for which the “ELISA Signal-blank (100 nM Fab)” value in assay [10] came to 0.499.

Values taken from patent publication US20120316071A1 (published 2012).
